This note sets out measurements from the supplement of paper PMC7877785.

± gives the uncertainty stated by the source.

This series in a line: self-splicing fitness, log relative to wild type (ln ratio); higher = more splicing; Tetrahymena group I intron in knt gene, E. coli kanamycin selection, DiMSum; sequences stand for … in CUCUCU…GGAGGGAAAAGUUAUCAGGCAUGCACCUGGUAGCUAGUCUUUAAACCAAUAGAUUGCAUCGGUUUAAAAGGCAAGACCGUCAAAUUGCGGGAAAGGGGUCAACAGCCGUUCAGUACCAAGUCUCAGGGGAAACUUUGAGAUGGCCUUGCAAAGGGUAUGGUAAUAAGCUGACGGACAUGGUCCUAACCACGCAGCCAAGUCCUAAGUCAACAGAUCUUCUGUUGAUAUGGAUGCAGUUCACAGACUAAAUGUCGGUCGGGGAAGAUGUAUUCUUCUCAUAAGAUAUAGUCGGACCUCUCCUUAAUGGGAGCUAGCGGAUGAAGUGAUGCAACACUGGAGCCGCUGGGAACUAAUUUGUAUGCGAAAGUAUAUUGAUUAGUUUUGGAGUACUCGUGGUCG
The gist of the method: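 Library with all eight P1ex-region intron nucleotides randomised, intron inside the knt kanamycin-resistance gene on pET-22b(+), in E. coli BL21(DE3). Cells grew overnight at 37°C or 30°C on LB agar with or without 25 μg/mL kanamycin (plus 100 μg/mL carbenicillin, 50 μM IPTG, 0.2% rhamnose), in six replicate transformations. Pooled colonies were amplicon-sequenced on Illumina HiSeq 2500. DiMSum fitness is the error-weighted combination of wild-type-normalised replicate fold changes, kanamycin versus none.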

As to GUCCAGCAAUAUUACGAAGA, the “self-splicing fitness (ln)” value was -0.611 ± 0.19 (30 °C) and -1.51 ± 0.24 (37 °C).
The corresponding values for GUCCAGCAAUAUUACGAUCG are -1.8 ± 0.14 and -1.54 ± 0.14.
The corresponding values for GUCCAGCAAUAUUACGAUCU are -2.44 ± 0.16 and -0.0861 ± 0.12.
As to GUCCAGCAAUAUUACGCAGG, the “self-splicing fitness (ln)” value is -4.01 ± 0.18 (30 °C) and -3.72 ± 0.24 (37 °C).
Take GUCCAGCAAUAUUACGCCAG: the “self-splicing fitness (ln)” value by setting is: (30 °C) -3.38 ± 0.23; (37 °C) -1.15 ± 0.2.
For GUCCAGCAAUAUUACGCCGU the same measures were -1.29 ± 0.13 and -0.122 ± 0.13.
Consider GUCCAGCAAUAUUACGCGGG, for which the “self-splicing fitness (ln)” value reads like this: (30 °C) -4.23 ± 0.26; (37 °C) -2.92 ± 0.24.
For the sequence GUCCAGCAAUAUUACGCGUC, the “self-splicing fitness (ln)” value runs as follows: (30 °C) -1.15 ± 0.088; (37 °C) 0.346 ± 0.12.
On to GUCCAGCAAUAUUACGCUAA, for which the “self-splicing fitness (ln)” value runs as follows: (30 °C) -0.5 ± 0.11; (37 °C) 0.303 ± 0.11.
The corresponding values for GUCCAGCAAUAUUACGCUCA are -0.307 ± 0.092 and -0.112 ± 0.11.
The corresponding values for GUCCAGCAAUAUUACGCUGA are -0.534 ± 0.092 and -0.466 ± 0.13.
The corresponding values for GUCCAGCAAUAUUACGGAUG are -0.272 ± 0.077 and 0.023 ± 0.1.
As for GUCCAGCAAUAUUACGGCAA, the “self-splicing fitness (ln)” value reads like this: (30 °C) -0.33 ± 0.097; (37 °C) -0.363 ± 0.085.
For GUCCAGCAAUAUUACGGCUC the same measures were -0.432 ± 0.077 and 0.909 ± 0.12.
For GUCCAGCAAUAUUACGGGAA the same measures were -0.0663 ± 0.071 and -0.474 ± 0.077.
For GUCCAGCAAUAUUACGGGAU the same measures were -4.04 ± 0.2 and -2.76 ± 0.22.
For the sequence GUCCAGCAAUAUUACGUACU, the “self-splicing fitness (ln)” value reads like this: (30 °C) -2.47 ± 0.14; (37 °C) -1.53 ± 0.14.
Turning to GUCCAGCAAUAUUACGUCAU, the “self-splicing fitness (ln)” value is -0.201 ± 0.077 (30 °C) and 0.269 ± 0.081 (37 °C).
For the sequence GUCCAGCAAUAUUACGUGUC, the “self-splicing fitness (ln)” value was -0.424 ± 0.057 (30 °C) and 0.0485 ± 0.068 (37 °C).
The corresponding values for GUCCAGCAAUAUUACGUUCC are -1.46 ± 0.083 and -0.198 ± 0.1.
On to GUCGAGCAAUAUUACGAACG, for which, under “37 °C”, the “self-splicing fitness (ln)” value was -1.02 ± 0.23.
Consider GUCGAGCAAUAUUACGCACG, for which, for the setting “30 °C”, the “self-splicing fitness (ln)” value is -1 ± 0.28.
As for GUCGAGCAAUAUUACGCGGU, the “self-splicing fitness (ln)” value (37 °C) was -1.94 ± 0.32.
For GUCGAGCAAUAUUACGGGAG, the “self-splicing fitness (ln)” value is -3.67 ± 0.21 (30 °C) and -2.4 ± 0.2 (37 °C).
GUCGAGCAAUAUUACGUCCA: the “self-splicing fitness (ln)” value is, setting by setting: (30 °C) -2.21 ± 0.22; (37 °C) -2.53 ± 0.26.
Regarding GUCGAGCAAUAUUACGUGGA, where the note is “37 °C”, the “self-splicing fitness (ln)” value was -2.46 ± 0.26.
Turning to GUCGAGCAAUAUUACGUGGG, the “self-splicing fitness (ln)” value is, setting by setting: (30 °C) -2.55 ± 0.21; (37 °C) -0.374 ± 0.14.
For GUCUAGCAAUAUUACGACAA the same measures were -2.6 ± 0.23 and -1.56 ± 0.26.
For GUCUAGCAAUAUUACGACCA the same measures were -0.99 ± 0.26 and -2.1 ± 0.29.
Take GUCUAGCAAUAUUACGACCU: the “self-splicing fitness (ln)” value reads like this: (30 °C) -2.33 ± 0.21; (37 °C) -1.21 ± 0.17.
GUCUAGCAAUAUUACGACGA: the “self-splicing fitness (ln)” value is -1.86 ± 0.18 (30 °C) and -0.293 ± 0.16 (37 °C).
For GUCUAGCAAUAUUACGAGUU the same measures were -2.13 ± 0.12 and -1.32 ± 0.1.
In the case of GUCUAGCAAUAUUACGAUCG, the “self-splicing fitness (ln)” value was -3.06 ± 0.17 (30 °C) and -1.09 ± 0.16 (37 °C).
For GUCUAGCAAUAUUACGAUUU the same measures were -0.743 ± 0.056 and 0.36 ± 0.064.
Turning to GUCUAGCAAUAUUACGCAGG, the “self-splicing fitness (ln)” value runs as follows: (30 °C) -3.11 ± 0.3; (37 °C) -3.31 ± 0.37.
Turning to GUCUAGCAAUAUUACGCAUA, the “self-splicing fitness (ln)” value is, setting by setting: (30 °C) -1.08 ± 0.14; (37 °C) -0.121 ± 0.12.
For GUCUAGCAAUAUUACGCAUU the same measures were 0.0861 ± 0.1 and 0.379 ± 0.092.
For GUCUAGCAAUAUUACGCCCC the same measures were 0.281 ± 0.13 and -0.182 ± 0.12.
For GUCUAGCAAUAUUACGCCCU the same measures were -0.702 ± 0.36 and -0.472 ± 0.37.
For the sequence GUCUAGCAAUAUUACGCCUU, the “self-splicing fitness (ln)” value was -0.385 ± 0.16 (30 °C) and 0.266 ± 0.15 (37 °C).
The corresponding values for GUCUAGCAAUAUUACGCGAG are -1.08 ± 0.13 and 0.182 ± 0.13.
The corresponding values for GUCUAGCAAUAUUACGCGUA are -0.384 ± 0.081 and 0.391 ± 0.09.
With GUCUAGCAAUAUUACGGGGC, the “self-splicing fitness (ln)” value (37 °C) was -2.34 ± 0.36.
In the case of GUCUAGCAAUAUUACGUACC, the “self-splicing fitness (ln)” value is -0.591 ± 0.29 (30 °C) and -0.721 ± 0.3 (37 °C).
Regarding GUCUAGCAAUAUUACGUCGG, the “self-splicing fitness (ln)” value (30 °C) is -3.43 ± 0.2 and the “self-splicing fitness (ln)” value (37 °C) is -2.51 ± 0.2.
For GUCUAGCAAUAUUACGUGUU the same measures were -1.61 ± 0.092 and -0.352 ± 0.093.
The corresponding values for GUCUAGCAAUAUUACGUUAU are -0.954 ± 0.061 and -0.704 ± 0.055.
Consider GUCUAGCAAUAUUACGUUUA, for which the “self-splicing fitness (ln)” value was -0.64 ± 0.12 (30 °C) and -1 ± 0.1 (37 °C).
The corresponding values for GUGAAGCAAUAUUACGAAGU are -0.832 ± 0.14 and -1.05 ± 0.16.
Consider GUGAAGCAAUAUUACGACUC, for which the “self-splicing fitness (ln)” value runs as follows: (30 °C) 0.243 ± 0.26; (37 °C) -0.398 ± 0.28.
The corresponding values for GUGAAGCAAUAUUACGAUAA are -0.524 ± 0.15 and 0.6 ± 0.15.
Regarding GUGAAGCAAUAUUACGAUAU, the “self-splicing fitness (ln)” value was -0.274 ± 0.044 (30 °C) and -0.103 ± 0.058 (37 °C).
GUGAAGCAAUAUUACGAUUC: the “self-splicing fitness (ln)” value is -0.545 ± 0.098 (30 °C) and 0.0735 ± 0.17 (37 °C).
Take GUGAAGCAAUAUUACGCACC: the “self-splicing fitness (ln)” value (37 °C) is -1.92 ± 0.34.
Same read-out and setting: the same measure for GUGAAGCAAUAUUACGCAUC: -1.69 ± 0.49.
For the sequence GUGAAGCAAUAUUACGCCCU, the “self-splicing fitness (ln)” value is, setting by setting: (30 °C) -0.176 ± 0.13; (37 °C) 0.602 ± 0.15.
For the sequence GUGAAGCAAUAUUACGCUCG, the “self-splicing fitness (ln)” value is -1.69 ± 0.11 (30 °C) and -0.267 ± 0.13 (37 °C).
For GUGAAGCAAUAUUACGGCAC, the “self-splicing fitness (ln)” value (30 °C) is -0.747 ± 0.16 and the “self-splicing fitness (ln)” value (37 °C) was -0.289 ± 0.33.
For GUGAAGCAAUAUUACGGCAU the same measures were 0.0954 ± 0.083 and 0.334 ± 0.089.
The corresponding values for GUGAAGCAAUAUUACGGCUC are -0.996 ± 0.091 and -0.646 ± 0.099.
GUGAAGCAAUAUUACGGGCU: the “self-splicing fitness (ln)” value was -2.08 ± 0.13 (30 °C) and -0.869 ± 0.15 (37 °C).
For GUGAAGCAAUAUUACGGGUU the same measures were -1.67 ± 0.069 and -1.4 ± 0.1.
For GUGAAGCAAUAUUACGUAUG the same measures were -2.38 ± 0.085 and -1.29 ± 0.088.
Turning to GUGAAGCAAUAUUACGUGCC, the “self-splicing fitness (ln)” value is -1.92 ± 0.32 (30 °C) and -1.32 ± 0.36 (37 °C).
Regarding GUGCAGCAAUAUUACGAACA, the “self-splicing fitness (ln)” value (30 °C) is -1.32 ± 0.22 and the “self-splicing fitness (ln)” value (37 °C) was -1.25 ± 0.2.
For GUGCAGCAAUAUUACGAAUA the same measures were -1.79 ± 0.14 and -1.07 ± 0.17.
As for GUGCAGCAAUAUUACGAAUC, the “self-splicing fitness (ln)” value runs as follows: (30 °C) -1.28 ± 0.17; (37 °C) -0.491 ± 0.18.
For GUGCAGCAAUAUUACGAAUU the same measures were -1.43 ± 0.091 and -0.441 ± 0.12.
The corresponding values for GUGCAGCAAUAUUACGAGGU are -3.63 ± 0.3 and -2.47 ± 0.21.
For GUGCAGCAAUAUUACGCCCG, the “self-splicing fitness (ln)” value reads like this: (30 °C) -1.69 ± 0.36; (37 °C) -1.51 ± 0.37.
For GUGCAGCAAUAUUACGCGAG the same measures were -2.55 ± 0.13 and -1.7 ± 0.12.
As to GUGCAGCAAUAUUACGCUGG, the “self-splicing fitness (ln)” value by setting is: (30 °C) -2.41 ± 0.12; (37 °C) -1.09 ± 0.13.
As for GUGCAGCAAUAUUACGCUGU, the “self-splicing fitness (ln)” value (30 °C) is -3.35 ± 0.24 and the “self-splicing fitness (ln)” value (37 °C) was -2.63 ± 0.26.
Take GUGCAGCAAUAUUACGGACG: the “self-splicing fitness (ln)” value runs as follows: (30 °C) -2.47 ± 0.1; (37 °C) -0.949 ± 0.11.
For GUGCAGCAAUAUUACGGUAC the same measures were -2.67 ± 0.15 and -2.07 ± 0.17.
The corresponding values for GUGCAGCAAUAUUACGUAGG are -1.28 ± 0.11 and -1.05 ± 0.16.
The corresponding values for GUGCAGCAAUAUUACGUCUA are -0.238 ± 0.078 and 0.283 ± 0.083.
